Experimental data as given in PMC4333417 (Nucleic Acids Research, 2015).

T1: Sco5333 (Streptomyces coelicolor, UniProt Q9ADD4 1-301)
T1 sequence: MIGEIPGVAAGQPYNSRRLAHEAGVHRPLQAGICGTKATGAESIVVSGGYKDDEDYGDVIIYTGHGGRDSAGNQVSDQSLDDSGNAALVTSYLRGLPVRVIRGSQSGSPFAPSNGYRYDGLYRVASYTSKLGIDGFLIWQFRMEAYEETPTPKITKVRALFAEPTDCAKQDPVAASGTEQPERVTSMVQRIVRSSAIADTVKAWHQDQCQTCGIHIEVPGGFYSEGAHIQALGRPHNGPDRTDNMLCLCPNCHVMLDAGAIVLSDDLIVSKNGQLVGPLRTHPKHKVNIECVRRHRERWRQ


Biological target: T1, Sco5333
Experiment: EMSA

Row | Binder | binding result
1 | 55ntDcm2 fully methylated (55nt-5/7) (dsDNA, 5mC at strand 1 pos 27 and strand 2 pos 27) DNA 1: ACTATAAAGATACCAGGCGTTTCCCCCTGGAAGCTCCCTCGTGCGCTCTCCTGTT DNA 2: AACAGGAGAGCGCACGAGGGAGCTTCCAGGGGGAAACGCCTGGTATCTTTATAGT | binds
2 | 55ntDcm2 non-methylated (55nt-6/8) (dsDNA) DNA 1: ACTATAAAGATACCAGGCGTTTCCCCCTGGAAGCTCCCTCGTGCGCTCTCCTGTT DNA 2: AACAGGAGAGCGCACGAGGGAGCTTCCAGGGGGAAACGCCTGGTATCTTTATAGT | no binding
3 | 55ntDcm2 bottom methylated (55nt-6/7) (dsDNA, 5mC at strand 2 pos 27) DNA 1: ACTATAAAGATACCAGGCGTTTCCCCCTGGAAGCTCCCTCGTGCGCTCTCCTGTT DNA 2: AACAGGAGAGCGCACGAGGGAGCTTCCAGGGGGAAACGCCTGGTATCTTTATAGT | binds
4 | 55ntDcm2 top methylated (55nt-5/8) (dsDNA, 5mC at strand 1 pos 27) DNA 1: ACTATAAAGATACCAGGCGTTTCCCCCTGGAAGCTCCCTCGTGCGCTCTCCTGTT DNA 2: AACAGGAGAGCGCACGAGGGAGCTTCCAGGGGGAAACGCCTGGTATCTTTATAGT | binds
5 | 55ntDcm1 non-methylated (55nt-2/4) (dsDNA) DNA 1: GAAACCCGACAGGACTATAAAGATACCAGGCGTTTCCCCCTGGAAGCTCCCTCGT DNA 2: ACGAGGGAGCTTCCAGGGGGAAACGCCTGGTATCTTTATAGTCCTGTCGGGTTTC | no binding
6 | 55ntDcm1 AmCAGG full (55nt-13/15) (dsDNA, 5mC at strand 1 pos 27 and strand 2 pos 27) DNA 1: GAAACCCGACAGGACTATAAAGATAACAGGCGTTTCCCCCTGGAAGCTCCCTCGT DNA 2: ACGAGGGAGCTTCCAGGGGGAAACGCCTGTTATCTTTATAGTCCTGTCGGGTTTC | binds
7 | 55ntDcm1 GmCAGG top (55nt-9/12) (dsDNA, 5mC at strand 1 pos 27) DNA 1: GAAACCCGACAGGACTATAAAGATAGCAGGCGTTTCCCCCTGGAAGCTCCCTCGT DNA 2: ACGAGGGAGCTTCCAGGGGGAAACGCCTGCTATCTTTATAGTCCTGTCGGGTTTC | binds
8 | 55ntDcm1 TmCAGG full (55nt-17/19) (dsDNA, 5mC at strand 1 pos 27 and strand 2 pos 27) DNA 1: GAAACCCGACAGGACTATAAAGATATCAGGCGTTTCCCCCTGGAAGCTCCCTCGT DNA 2: ACGAGGGAGCTTCCAGGGGGAAACGCCTGATATCTTTATAGTCCTGTCGGGTTTC | binds
9 | 55ntDcm1 CmCTGG top (55nt-21/24) (dsDNA, 5mC at strand 1 pos 27) DNA 1: GAAACCCGACAGGACTATAAAGATACCTGGCGTTTCCCCCTGGAAGCTCCCTCGT DNA 2: ACGAGGGAGCTTCCAGGGGGAAACGCCAGGTATCTTTATAGTCCTGTCGGGTTTC | binds
10 | 55ntDcm1 CmCCGG bottom (55nt-26/27) (dsDNA, 5mC at strand 2 pos 27) DNA 1: GAAACCCGACAGGACTATAAAGATACCCGGCGTTTCCCCCTGGAAGCTCCCTCGT DNA 2: ACGAGGGAGCTTCCAGGGGGAAACGCCGGGTATCTTTATAGTCCTGTCGGGTTTC | binds
11 | 55ntDcm1 CmCGGG top (55nt-29/32) (dsDNA, 5mC at strand 1 pos 27) DNA 1: GAAACCCGACAGGACTATAAAGATACCGGGCGTTTCCCCCTGGAAGCTCCCTCGT DNA 2: ACGAGGGAGCTTCCAGGGGGAAACGCCCGGTATCTTTATAGTCCTGTCGGGTTTC | binds
12 | 55ntDcm1 top methylated (55nt-1/4) (dsDNA, 5mC at strand 1 pos 27) DNA 1: GAAACCCGACAGGACTATAAAGATACCAGGCGTTTCCCCCTGGAAGCTCCCTCGT DNA 2: ACGAGGGAGCTTCCAGGGGGAAACGCCTGGTATCTTTATAGTCCTGTCGGGTTTC | binds
13 | 55ntDcm1 CmCGGG full (55nt-29/31) (dsDNA, 5mC at strand 1 pos 27 and strand 2 pos 27) DNA 1: GAAACCCGACAGGACTATAAAGATACCGGGCGTTTCCCCCTGGAAGCTCCCTCGT DNA 2: ACGAGGGAGCTTCCAGGGGGAAACGCCCGGTATCTTTATAGTCCTGTCGGGTTTC | binds
14 | 55ntDcm1 TmCAGG bottom (55nt-18/19) (dsDNA, 5mC at strand 2 pos 27) DNA 1: GAAACCCGACAGGACTATAAAGATATCAGGCGTTTCCCCCTGGAAGCTCCCTCGT DNA 2: ACGAGGGAGCTTCCAGGGGGAAACGCCTGATATCTTTATAGTCCTGTCGGGTTTC | binds
15 | 55ntDcm1 TmCAGG top (55nt-17/20) (dsDNA, 5mC at strand 1 pos 27) DNA 1: GAAACCCGACAGGACTATAAAGATATCAGGCGTTTCCCCCTGGAAGCTCCCTCGT DNA 2: ACGAGGGAGCTTCCAGGGGGAAACGCCTGATATCTTTATAGTCCTGTCGGGTTTC | binds
16 | 55ntDcm1 CmCTGG bottom (55nt-22/23) (dsDNA, 5mC at strand 2 pos 27) DNA 1: GAAACCCGACAGGACTATAAAGATACCTGGCGTTTCCCCCTGGAAGCTCCCTCGT DNA 2: ACGAGGGAGCTTCCAGGGGGAAACGCCAGGTATCTTTATAGTCCTGTCGGGTTTC | binds
17 | 55ntDcm1 AmCAGG bottom (55nt-14/15) (dsDNA, 5mC at strand 2 pos 27) DNA 1: GAAACCCGACAGGACTATAAAGATAACAGGCGTTTCCCCCTGGAAGCTCCCTCGT DNA 2: ACGAGGGAGCTTCCAGGGGGAAACGCCTGTTATCTTTATAGTCCTGTCGGGTTTC | binds
18 | 55ntDcm1 CmCTGG full (55nt-21/23) (dsDNA, 5mC at strand 1 pos 27 and strand 2 pos 27) DNA 1: GAAACCCGACAGGACTATAAAGATACCTGGCGTTTCCCCCTGGAAGCTCCCTCGT DNA 2: ACGAGGGAGCTTCCAGGGGGAAACGCCAGGTATCTTTATAGTCCTGTCGGGTTTC | binds
19 | 55ntDcm1 CmCGGG bottom (55nt-30/31) (dsDNA, 5mC at strand 2 pos 27) DNA 1: GAAACCCGACAGGACTATAAAGATACCGGGCGTTTCCCCCTGGAAGCTCCCTCGT DNA 2: ACGAGGGAGCTTCCAGGGGGAAACGCCCGGTATCTTTATAGTCCTGTCGGGTTTC | binds
20 | 55ntDcm1 CmCCGG full (55nt-25/27) (dsDNA, 5mC at strand 1 pos 27 and strand 2 pos 27) DNA 1: GAAACCCGACAGGACTATAAAGATACCCGGCGTTTCCCCCTGGAAGCTCCCTCGT DNA 2: ACGAGGGAGCTTCCAGGGGGAAACGCCGGGTATCTTTATAGTCCTGTCGGGTTTC | binds
21 | 55ntDcm1 CmCCGG top (55nt-25/28) (dsDNA, 5mC at strand 1 pos 27) DNA 1: GAAACCCGACAGGACTATAAAGATACCCGGCGTTTCCCCCTGGAAGCTCCCTCGT DNA 2: ACGAGGGAGCTTCCAGGGGGAAACGCCGGGTATCTTTATAGTCCTGTCGGGTTTC | binds
22 | 55ntDcm1 AmCAGG top (55nt-13/16) (dsDNA, 5mC at strand 1 pos 27) DNA 1: GAAACCCGACAGGACTATAAAGATAACAGGCGTTTCCCCCTGGAAGCTCCCTCGT DNA 2: ACGAGGGAGCTTCCAGGGGGAAACGCCTGTTATCTTTATAGTCCTGTCGGGTTTC | binds
23 | 55ntDcm1 fully methylated (55nt-1/3) (dsDNA, 5mC at strand 1 pos 27 and strand 2 pos 27) DNA 1: GAAACCCGACAGGACTATAAAGATACCAGGCGTTTCCCCCTGGAAGCTCCCTCGT DNA 2: ACGAGGGAGCTTCCAGGGGGAAACGCCTGGTATCTTTATAGTCCTGTCGGGTTTC | binds
24 | 55ntDcm1 GmCAGG full (55nt-9/11) (dsDNA, 5mC at strand 1 pos 27 and strand 2 pos 27) DNA 1: GAAACCCGACAGGACTATAAAGATAGCAGGCGTTTCCCCCTGGAAGCTCCCTCGT DNA 2: ACGAGGGAGCTTCCAGGGGGAAACGCCTGCTATCTTTATAGTCCTGTCGGGTTTC | binds
25 | 55ntDcm1 GmCAGG bottom (55nt-10/11) (dsDNA, 5mC at strand 2 pos 27) DNA 1: GAAACCCGACAGGACTATAAAGATAGCAGGCGTTTCCCCCTGGAAGCTCCCTCGT DNA 2: ACGAGGGAGCTTCCAGGGGGAAACGCCTGCTATCTTTATAGTCCTGTCGGGTTTC | binds
